Source: paper PMC3164098 (2011)
Ends that are not written are not given here.

Target: T1, 12/1 peptide
T1 chain: MPRFMDYWEGLN-NH2
Assay: ITC

Kd: 240 nM
B1: MDM2 18-125 (protein)
chain: QIPASEQETLVRPKPLLLKLLKSVGAQKDTYTMKEVLFYLGQYIMTKRLYDEKQQHIVYCSNDLLGDLFGVPSFSVKEHRKIYTMIYRNLVVVNQQESSDSGTSVSEN
